Experimental data taken from paper PMC11411725.

Molecular target: vCCI (viral CC chemokine inhibitor), wild type, from rabbitpox (rabbitpox), O10647
Assay: SEC-MALS
Conditions: remark: other sources report otherwise

B1: CCL17 (CC chemokine ligand 17, TARC), wild type, Q92583 24-94 (ligand)
chain: ARGTNVGRECCLEYFKGAIPLRKLKTWYQTSEDCSRDAIVFVTVQGRAICSDPNNKRVKNAVKYLQSLERS
Question: B1 was tested. Which stoichiometry N did it give?
Answer: 1
